# Data published in IntAct's records for PubMed 16287128.
# B1: Matrilin-3 (Homo sapiens), O15232 (parent)
# chain: MPRPAPARRLPGLLLLLWPLLLLPSAAPDPVARPGFRRLETRGPGGSPGRRPSPAAPDGAPASGTSEPGRARGAGVCKSRPLDLVFIIDSSRSVRPLEFTKVKTFVSRIIDTLDIGPADTRVAVVNYASTVKIEFQLQAYTDKQSLKQAVGRITPLSTGTMSGLAIQTAMDEAFTVEAGAREPSSNIPKVAIIVTDGRPQDQVNEVAARAQASGIELYAVGVDRADMASLKMMASEPLEEHVFYVETYGVIEKLSSRFQETFCALDPCVLGTHQCQHVCISDGEGKHHCECSQGYTLNADKKTCSALDRCALNTHGCEHICVNDRSGSYHCECYEGYTLNEDRKTCSAQDKCALGTHGCQHICVNDRTGSHHCECYEGYTLNADKKTCSVRDKCALGSHGCQHICVSDGAASYHCDCYPGYTLNEDKKTCSATEEARRLVSTEDACGCEATLAFQDKVSSYLQRLNTKLDDILEKLKINEYGQIHR
# partner: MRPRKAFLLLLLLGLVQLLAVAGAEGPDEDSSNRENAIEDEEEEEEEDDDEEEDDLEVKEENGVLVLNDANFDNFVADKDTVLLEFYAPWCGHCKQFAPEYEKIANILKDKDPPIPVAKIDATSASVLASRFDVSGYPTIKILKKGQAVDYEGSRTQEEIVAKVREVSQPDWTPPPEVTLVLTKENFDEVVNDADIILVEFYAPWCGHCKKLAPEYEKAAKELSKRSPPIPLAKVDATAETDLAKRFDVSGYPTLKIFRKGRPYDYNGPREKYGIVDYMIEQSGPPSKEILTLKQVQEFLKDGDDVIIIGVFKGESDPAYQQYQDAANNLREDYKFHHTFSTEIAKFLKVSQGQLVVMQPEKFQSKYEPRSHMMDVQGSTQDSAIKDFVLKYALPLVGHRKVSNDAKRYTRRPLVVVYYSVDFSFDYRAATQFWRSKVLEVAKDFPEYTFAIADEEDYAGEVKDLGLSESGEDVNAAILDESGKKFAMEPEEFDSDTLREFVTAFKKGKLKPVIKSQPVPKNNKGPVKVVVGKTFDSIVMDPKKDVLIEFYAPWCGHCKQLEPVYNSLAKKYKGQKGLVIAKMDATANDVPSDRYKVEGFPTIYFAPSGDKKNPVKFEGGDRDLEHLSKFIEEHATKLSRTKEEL
# Variants of: B1
# Conditions: with pdia4_human PDIA4, P13667
row,Variant,effect of a mutation on the interaction
1,A219D,causing an interaction
2,R121W,causing an interaction
3,V194D,causing an interaction
4,E252K,with no effect
